# B1: murine recombinant full-length prion protein (PrP23-231) (natural protein)
# chain: not shown
# notes: also called recombinant PrP; PrP23-231 fibril seed
# Biological target: the molecule itself
# Experiment: RT-QuIC (seeded fibril conversion, thioflavin T fluorescence)
protein,measurement,value
B1,binding result,binds

# — paper PMC9693643, “Aminoquinolones and Their Benzoquinone Dimer Hybrids as Modulators of Prion Protein Conversion” (Molecules, 2022)
